{"source": "patent US20030220285A1", "key": {"[1]": {"biological_target": "purified HLA-A2.1 molecules (human)", "settings": "remark: other sources report otherwise"}, "[2]": {"biological_target": "purified HLA-A11 molecules (human)"}}}
{"binder": "WLSLLVPFV (modifications not checked)", "note": "[HBV Env 335 (HBV env 335-343) peptide …]", "values": [{"measurement": "IC50", "setting": "[1]", "value": 5, "unit": "nM"}]}
{"binder": "TVYYGVPVWK (modifications not checked)", "note": "[HIV Env 49 (HIV env 49-58) peptide …]", "values": [{"measurement": "IC50", "setting": "[2]", "value": 4, "unit": "nM"}]}
